Test results: article PMC3137072

Target: microtubules (polymerized tubulin) (UniProt Q6B856)
Sequence (Q6B856 whole entry, looked up): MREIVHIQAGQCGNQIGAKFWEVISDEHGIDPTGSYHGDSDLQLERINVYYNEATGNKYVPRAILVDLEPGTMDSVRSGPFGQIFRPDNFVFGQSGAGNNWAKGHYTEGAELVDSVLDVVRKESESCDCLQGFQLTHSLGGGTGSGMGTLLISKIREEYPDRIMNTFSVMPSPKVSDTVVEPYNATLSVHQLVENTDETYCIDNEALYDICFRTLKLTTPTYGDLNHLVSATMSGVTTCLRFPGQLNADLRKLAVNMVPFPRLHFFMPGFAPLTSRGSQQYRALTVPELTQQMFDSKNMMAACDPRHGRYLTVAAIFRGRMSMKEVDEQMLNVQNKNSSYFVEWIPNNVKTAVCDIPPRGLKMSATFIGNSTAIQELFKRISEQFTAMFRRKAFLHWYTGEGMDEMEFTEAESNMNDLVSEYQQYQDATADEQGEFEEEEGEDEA

FRAP, t½ of recovery of GFP-tagged full-length G2L3 on MTs in NIH3T3 cells: 14.9 s
B1: GAS2-like 3 (G2L3), full length, GFP-tagged (natural protein)
chain: MQPAIQVWFGEDLPLSPRSPLTPRHGPGLANVCQYDEWIAVRHEATLLPMQEDLSIWLSGLLGIKVKAEKLLEELDNGVLLCQLIDVLQNMVKTCNSEESGNFPMRKVPCKKDAASGSFFARDNTANFLHWCRDIGVDETYLFESEGLVLHKDPRQVYLCLLEIGRIVSRYGVEPPVLVKLEKEIELEETLLNTSGPEDSISIPKSCCRHEELHEAVKHIAEDPPCSCSHRFSIEYLSEGRYRLGDKILFIRMLHGKHVMVRVGGGWDTLQGFLLKYDPCRILQFATLEQKILAFQKGVSNESVPDSPARTPQPPEMNPLSAVNMFQKQNSKPSVPVSIPKSKEKQGRPPGALVPASSLKGGNLGSMSVRSKLPNSPAASSHPKLKSSKGITKKPQAPSNNASSSLASLNPVGKNTSSPALPRTAPCISESPRKCISSPNTPKAKVIPAQNSADLPESTLLPNKCSGKTQPKYLKHNHISSRDNAVSHLAAHSNSSSKCPKLPKANIPVRPKPSFQSSAKMTKTSSKTIATGLGTQSQPSDGAPQAKPVPAQKLKSALNLNQPVSVSSVSPVKATQKSKDKNIVSATKKQPQNKSAFQKTGPSSLKSPGRTPLSIVSLPQSSTKTQTAPKSAQTVAKSQHSTKGPPRSGKTPASIRKPPSSVKDADSGDKKPTAKKKEDDDHYFVMTGSKKPRK
